Legend:
PET [1] = assay: Proxy for plastic degradation [Released monomer concentration (HPLC/LC-MS) (Total aromatic products)] (nmol/(min*cm²)); details: pH 9
PET [2] = assay: Proxy for plastic degradation [Released monomer concentration (HPLC/LC-MS) (TPA+EG)]; details: pH 8, 70 °C, part of the chain shown
PET [3] = assay: Proxy for plastic degradation [Released monomer concentration (HPLC/LC-MS) (TPA+MHET)]; details: pH 9

B1: unnamed (protein)
chain: ANPYERGPNPTDALLEARSGPFSVSEENVSRLSASGFGGGTIYYPRENNTYGAVAISPGYTGTEASIAWLGERIASHGFVVITIDTITTLDQPDSRAEQLNAALNHMINRASSTVRSRIDSSRLAVMGHSMGGGGSLRLASQRPDLKAAIPLTPWHLNKNWSSVTVPTLIIGADLDTIAPVATHAKPFYNSLPSSISKAYLELDGATHVAPNIPNKIIGKYSVAWLKRFVDNDTRYTQFLCPGPRDGLFGEVEEYRSTCPFYPNSSSVDKLAAALE
PET [1]
  Proxy for plastic degradation: 6.5

B2: unnamed (protein)
chain: ANPYERGPNPTDALLEARSGPFSVSEENVSRLSASGFGGGTIYYPRENNTYGAVAISPGYTGTEASIAWLGERIASHGFVVITIDTITTLDQPDSRAEQLNAALNHMINRASSTVRSRIDSSRLAVMGHSMGGGGSLRLASQRPDLKAAIPLTPWHLNKNWSSVTVPTLIIGADLDTIAPVATHAKPFYNSLPSSISKAYLELDGATHWAPNIPNKIIGKYSVAWLKRFVDNDTRYTQFLCPGPRDGLFGEVEEYRSTCPFYPNSSSVDKLAAALE
PET [1]
  Proxy for plastic degradation: 3

B3: unnamed (protein)
chain: ANPYERGPNPTDALLEARSGPFSVSEENVSRLSASGFGGGTIYYPRENNTYGAVAISPGYTGTEASIAWLGERIASHGFVVITIDTITTLDQPDSRAEQLNAALNHMINRASSTVRSRIDSSRLAVMGHSMGGGGSLRLASQRPDLKAAIPLTPWHLNKNWSSVTVPTLIIGADLDTIAPVATHAKPFYNSLPSSISKAYLELDGATHLAPNIPNKIIGKYSVAWLKRFVDNDTRYTQFLCPGPRDGLFGEVEEYRSTCPFYPNSSSVDKLAAALE
PET [1]
  Proxy for plastic degradation: 0.5

B4: unnamed (protein)
chain: QLGAIENGLESGSANACPDAILIFARGSTEPGNMGITVGPALANGLESHIRNIWIQGVGGPYDAALATNFLPRGTSQANIDEGKRLFALANQKCPNTPVVAGGYSQGAALIAAAVSELSGAVKEQVKGVALFGYTQNLQNRGGIPNYPRERTKVFCNVGDAVCTGTLIITPAHLSYTIEARGEAARFLRDRIRA
PET [2]; 0 h
  Proxy for plastic degradation: 0%
PET [2]; 24 h
  Proxy for plastic degradation: 38%
PET [2]; 48 h
  Proxy for plastic degradation: 50%
PET [2]; 72 h
  Proxy for plastic degradation: 70%
PET [2]; 96 h
  Proxy for plastic degradation: 90%

B5: unnamed (protein)
chain: MNPFEKGPDPTKTMLEASTGPFTYTTTTVSSTTASGYRQGTIYHPTNVTGPFAAVAVVPGYLASQSSINWWGPRLASHGFVVITIDTNSTSDQPPSRATQLMAALNQLKTFSNTSSHPIYRKVDPNRLGVMGWSMGGGGTLIAARDNPTLKAAIPFAPWNSSTNFSTVSVPTLIIACESDSTAPVNSHASPFYNSLPSTTKKAYLEMNNGSHSCANSGNSNAGLIGKYGVSWMKRFMDNDTRFSPYLCGAPHQADLSLTAIDEYRENCPY
PET [3]; 30 °C
  Proxy for plastic degradation: 795 µM
PET [3]; 40 °C
  Proxy for plastic degradation: 790 µM
